In patent US20230407267A1, “USES OF PATIENT-DERIVED SCAFFOLDS” (Iscaff Pharma AB, priority 2020, published 2023):

Test system: MCF7 cells
Experiment: PDS co-culture of MCF7 cells with activated T-lymphocytes, with or without PD1 blockade: viability of MCF7 cells
Format: cell-based, human
Details: for % of viable MCF7 cells after 48 hours of co-culture with T-lymphocytes: MCF7 + TA+ pre-incubated with Pembr 100 μg/mL 30 min, relative to only-MCF7 control, average ± SD of 3 technical replicates
Method: FIG. 25. PD1 blocking antibody increases the killing capacity of the T-lymphocytes in PDS-dependent manner. T-lymphocytes were activated 20 hours by exposition to CD3/CD28 Dynabeads. […] Then, the co-cultures were incubated for 48 hours. Controls including only MCF7 cells or T-lymphocytes, and 2D cultures were included. (A) Surface expression of PD1 by T-lymphocytes analyzed by FACS. (B) Graph showing the % of viable MCF7 cells after 48 hours of co-culture with T-lymphocytes in 5 different PDSs. Data are relative to their own control with only MCF7 cells and show average±SD of 3 technical replicates.
In addition, in FIG. 13, it is shown how differential expression of PDL1 by MCF7 cells is triggered by different breast cancer PDSs. […] First, T-lymphocytes were activated 20 hours by exposure to CD3/CD28 Dynabeads. […] The blockade of PD1 protein in the T-lymphocytes was confirmed by FACS (FIG. 25A). The T-lymphocytes, with or without PD1 blockade (Pembr) were then added to the PDS cultures, in which the MCF7 cells had been growing for 21 days. The co-cultures were incubated for 48 hours. Control samples included samples with MCF7 cells or T-lymphocytes on their own, and 2D cultures.

Pembrolizumab
% of viable MCF7 cells after 48 hours of co-culture with T-lymphocytes (2D MCF7 culture): 5.5 ± 0.6%
% of viable MCF7 cells after 48 hours of co-culture with T-lymphocytes (PDS13): 31.2 ± 1.7%
killing efficacy of the T-lymphocytes after Pembrolizumab treatment (PDS13 and PDS17, compared to without this treatment): no changes
killing effect of the T-lymphocytes after incubation with Pembrolizumab (PDS14, PDS15 and PDS16, compared to T-lymphocytes without this treatment): higher
% of viable MCF7 cells after 48 hours of co-culture with T-lymphocytes (PDS14): 12.8 ± 2.3%
% of viable MCF7 cells after 48 hours of co-culture with T-lymphocytes (PDS15): 9.5 ± 0.6%
% of viable MCF7 cells after 48 hours of co-culture with T-lymphocytes (PDS16): 9.1 ± 2.5%
% of viable MCF7 cells after 48 hours of co-culture with T-lymphocytes (PDS17): 19.2 ± 4.3%
killing capacity of the T-lymphocytes (in PDS-dependent manner, FIG. 25 legend): increases
